In EP4606382A1 (Fundació Centre de Regulació Genòmica, dated 2025):

Biological target: T1, NanoLuc-cTAGE5-CC2 (predicted binding region of cTAGE5 coiled-coil 2 with a Nanoluciferase tag at the …)
T1 construct: The fusion construct was expressed inside live HEK293T cells; also called C5-CC2; c5-CC2
T1 chain: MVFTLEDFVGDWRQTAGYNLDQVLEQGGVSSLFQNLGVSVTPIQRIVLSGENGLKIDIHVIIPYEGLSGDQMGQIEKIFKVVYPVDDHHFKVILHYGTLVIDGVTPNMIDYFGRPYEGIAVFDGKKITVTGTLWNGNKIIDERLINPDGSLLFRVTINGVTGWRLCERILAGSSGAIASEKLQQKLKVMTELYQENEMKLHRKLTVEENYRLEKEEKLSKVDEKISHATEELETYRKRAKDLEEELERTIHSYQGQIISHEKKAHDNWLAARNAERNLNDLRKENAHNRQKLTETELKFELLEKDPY
Test: NanoBRET in live HEK293T cells (HaloTag 618 acceptor, NanoLuc donor)

B1: Halo-T1-CC2 (portion of the coiled-coil region CC2 of TANGO1 with an N-terminal fusion of HaloTag) (other)
chain: MAEIGTGFPFDPHYVEVLGERMHYVDVGPRDGTPVLFLHGNPTSSYVWRNIIPHVAPTHRCIAPDLIGMGKSDKPDLGYFFDDHVRFMDAFIEALGLEEVVLVIHDWGSALGFHWAKRNPERVKGIAFMEFIRPIPTWDEWPEFARETFQAFRTTDVGRKLIIDQNVFIEGTLPMGVVRPLTEVEMDHYREPFLNPVDREPLWRFPNELPIAGEPANIVALVEEYMDWLHQSPVPKLLFWGTPGVLIPPAEAARLAKSLPNCKAVDIGPGLNLLQEDNPDLIGSEIARWLSTLEISGEPTTEDLYFQSDNAIASELRQKVEILNELYQQKEMALQKKLSQEEYERQEREHRLSAADEKAVSAAEEVKTYKRRIEEMEDELQKTERSFKNQIATHEKKAHENWLKARAAERAIAEEKREAANLRHKLLELTQKMAMLQEEP
modifications: HaloTag labeled with the HaloTag 618 fluorescent ligand
notes: The fusion construct was expressed inside live HEK293T cells; also called Halo-TANGO1-CC2; TANGO1-CC2
B1: binds.
